{"source": "patent US8975044B2", "about": "“Polynucleotides encoding for frizzled-binding agents and uses thereof” (OncoMed Pharmaceuticals, Inc., priority 2008, dated 2015)", "molecules": {"B1": {"name": "44R24: anti-FZD5/8 IgG antibody, VH SEQ ID NO:85, VL SEQ ID NO:86; ATCC deposit no. PTA-10311 (antibody, V domains shown)", "VH": "EVQLVESGGGLVQPGGSLRLSCAASGFTFSSYYITWVRQAPGKGLEWVSTISYSSSNTYYADSVKGRFTISRDNSKNTLYLQMNSLRAEDTAVYYCARSIVFDYWGQGTLVTVSS", "VL": "DIELTQPPSVSVAPGQTARISCSGDALGNRYVYWYQQKPGQAPVLVIPSGIPERFSGSNSGNTATLTISGTQAEDEADYYCGSWDTRPYPKYVFGGGTKLTVLG", "modifications": "44R24 VH; 44R24 VL", "notes": "ATCC deposit no; PTA-10311"}, "B2": {"name": "18R5: human anti-FZD antibody; VH SEQ ID NO:10 (as 18R8), VL SEQ ID NO:14; binds FZD1, 2, 5, 7, 8 (antibody, V domains shown)", "VH": "EVQLVESGGGLVQPGGSLRLSCAASGFTFSHYTLSWVRQAPGKGLEWVSVISGDGSYTYYADSVKGRFTISSDNSKNTLYLQMNSLRAEDTAVYYCARNFIKYVFANWGQGTLVTVSS", "VL": "DIELTQPPSVSVAPGQTARISCSGDNIGSFYVHWYQQKPGQAPVLVIYDKSNRPSGIPERFSGSNSGNTATLTISGTQAEDEADYYCQSYANTLSLVFGGGTKLTVLG", "modifications": "18R5/18R8 heavy chain variable region (VH); 18R5 light chain variable region (VL)"}, "B3": {"name": "18R8: human anti-FZD antibody from phage display; VH SEQ ID NO:10, VL SEQ ID NO:12; binds FZD1, 2, 5, 7, 8 (antibody, V domains shown)", "VH": "B2 VH", "VL": "DIELTQPPSVSVAPGQTARISCSGDKLGKKYASWYQQKPGQAPVLVIYEKDNRPSGIPERFSGSNSGNTATLTISGTQAEDEADYYCSSFAGNSLEVFGGGTKLTVLG", "modifications": "18R5/18R8 heavy chain variable region (VH); 18R8 light chain variable region (VL)"}}, "key": {"[1]": {"system": "Cytokeratin 7", "assay": "Cytokeratin 7 immunohistochemistry on treated C28 tumors", "assay_type": "in vivo, Nod-Scid mice", "settings": "tumors harvested after treatment, 15 mg/kg twice per week", "experimental": "Following treatment of the animals in the experiment shown in FIG. 58, tumors were harvested, fixed in formalin, embedded in paraffin, and cut in 5 micron sections. Tumor sections were analyzed for Cytokeratin 7 expression, a marker of colon cell differentiation, by immunohistochemistry (Vectastain kit, Vector Labs). Cytokeratin 7 expression was seen to be elevated after treatment with 44R24 or 18R5 (FIG. 59)."}, "[2]": {"system": "Wnt target genes", "assay": "qPCR of Wnt target genes in liver of OMP-PN13-bearing mice", "assay_type": "in vivo, NOD/SCID mice", "experimental": "Frozen OMP-PN13 tumor cells that have been passaged twice in mice were obtained from Oncomed's tumor bank. They were thawed and injected subcutaneously into the left flank of NOD/SCID mice immediately following thawing. ˜ 25,000 viable cells were injected per animal. The mice were monitored weekly for tumor growth. After their onset, the size of the tumors was measured once weekly by caliper. 200-300 mm^3 tumor-bearing mice were dispatched in treatment groups that each contained 5 animals. […] Ab treatment was initiated the day after randomization. LZ1 was used as the negative control Ab. 3 doses of 10 mg/kg of Ab were administered via intra-peritoneal injection over a 12-day period. Mice were euthanized 24 hours after the last injection. Tumor, duodenum and liver were harvested.\nTotal RNAs were also extracted from tumor, duodenum and liver for Wnt target gene expression analyses using qPCR.\nTissues were immediately transferred into RNAlater (QIAGEN) at the time of harvest. RNA was extracted using the QIAGEN RNeasy for Fibrous Tissue mini kit according to the manufacturer instructions. 50 ng total RNA were submitted to gene expression analyses using ABI one-step RT-PCR protocol and reagents. GusB gene expression was used as endogenous control. Triplicates were setup for each sample. All 5 tumors of each treatment group were analyzed. ABI 7900 TaqMan machine was used to run the experiments. ABI SDS 2.2.1 software was used to analyze the data and calculate DeltaCt values that were converted into relative quantities. The triplicate values of all 5 tumors were averaged for each treatment group. Fold inhibition factors were then calculated relative to control antibody (LZ1)."}, "[3]": {"target": "T1, FZD8 (Homo sapiens, UniProt Q9H461, H70A/Q71E)", "T1 construct": "N-terminus of the Fri domain of FZD8 in turn fused to the transmembrane domain and intracellular domain of CD4 protein; expressed in transfected cells; host or cells: HEK293", "T1 sequence (Q9H461 28-158 H70A/Q71E)": "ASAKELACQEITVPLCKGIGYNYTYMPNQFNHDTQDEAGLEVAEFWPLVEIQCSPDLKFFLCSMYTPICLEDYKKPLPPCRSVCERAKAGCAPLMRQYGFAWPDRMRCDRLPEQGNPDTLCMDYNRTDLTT", "assay": "Epitope mapping by FACS on FZD8 Fri domain variants on HEK293 cells", "assay_type": "binding", "settings": "residues 70-71 changed from HQ to AE", "experimental": "(§1) To identify the FZD epitope recognized by the 18R8 IgG antibody, epitope mapping was performed. Flow cytometry analysis of cell surface expressed FZD was utilized to measure antibody binding. Mammalian expression plasmid vectors comprising a CMV promoter upstream of polynucleotides that encode an N-terminal signal sequence FLAG epitope tag fused to the N-terminus of the Fri domain of FZD8 in turn fused to the transmembrane domain and intracellular domain of CD4 protein were generated by standard recombinant technology. This expression construct allows expression of the FZD8 Fri domain on the cell surface, as well as expression of a FLAG epitope tag to monitor expression. Site-direct mutagenesis was then used to modify selected amino acids within the extracellular domain of FZD. HEK293 cells were co-transfected with expression vectors encoding the FZD and the transfection marker GFP. Forty-eight hours post-transfection, cells were collected in suspension and incubated on ice with anti-FZD antibody or control IgG to detect background antibody binding. The cells were washed and primary antibodies detected with anti-antibody secondary antibodies conjugated to a fluorescent chromophore. Labeled cells were then analyzed by flow cytometry to measure the binding of anti-FZD antibody to cell surface FZD.\n(§2) Epitope mapping for the anti-FZD antibody 44R24 was performed in a manner similar to that described above in Example 5 for the antibodies 18R8 and 18R5. The ability of 44R24 to bind to a similar epitope as 18R8 was assessed by flow cytometry using a series of amino acid variants of FZD8 previously shown to disrupt binding of 18R8 (see Example 5 and FIGS. 6 and 7)."}, "[4]": {"target": "T2, FZD8 (Homo sapiens, UniProt Q9H461, G66A/L67A)", "T2 construct": "N-terminus of the Fri domain of FZD8 in turn fused to the transmembrane domain and intracellular domain of CD4 protein; expressed in transfected cells; host or cells: HEK293", "T2 sequence (Q9H461 28-158 G66A/L67A)": "T1 sequence (Q9H461 28-158 H70A/Q71E) with G39A, L40A, A43H, E44Q", "assay": "Epitope mapping by FACS on FZD8 Fri domain variants on HEK293 cells", "assay_type": "binding", "settings": "amino acids 66-67 mutated from GL to AA", "experimental": "as §1, §2"}, "[5]": {"target": "T3, FZD8 (Homo sapiens, UniProt Q9H461, E68Q/V69L)", "T3 construct": "N-terminus of the Fri domain of FZD8 in turn fused to the transmembrane domain and intracellular domain of CD4 protein; expressed in transfected cells; host or cells: HEK293", "T3 sequence (Q9H461 28-158 E68Q/V69L)": "T1 sequence (Q9H461 28-158 H70A/Q71E) with E41Q, V42L, A43H, E44Q", "assay": "Epitope mapping by FACS on FZD8 Fri domain variants on HEK293 cells", "assay_type": "binding", "settings": "amino acids 68-69 mutated from EV to QL", "experimental": "as §1, §2"}, "[6]": {"settings": "fold relative to control antibody LZ1, 3 doses of 10 mg/kg over 12 days"}}, "note": "Changes are numbered by the printed parent chain."}
{"molecule": "B1", "values": [{"measurement": "Cytokeratin 7 expression", "setting": "[1]", "result": "elevated"}, {"measurement": "Liver Axin2", "setting": "[2]; [6]", "result": "−2.4", "unit": "x"}, {"measurement": "Liver Rhbg", "setting": "[2]; [6]", "result": "−1.9", "unit": "x"}]}
{"molecule": "B2", "values": [{"measurement": "binding to FZD8 variant", "setting": "[3]", "result": "reduced staining"}, {"measurement": "binding to FZD8 variant", "setting": "[4]", "result": "reduced staining"}, {"measurement": "binding to FZD8 variant", "setting": "[5]", "result": "reduced staining"}, {"measurement": "Cytokeratin 7 expression", "setting": "[1]", "result": "elevated"}, {"measurement": "Liver GluI", "setting": "[2]; [6]", "result": "−19", "unit": "x"}, {"measurement": "Liver Lect2", "setting": "[2]; [6]", "result": "−8", "unit": "x"}, {"measurement": "Liver Lgr5", "setting": "[2]; [6]", "result": "−26", "unit": "x"}, {"measurement": "inhibition of Wnt target gene in liver", "setting": "[2]; relative to LZ1", "result": 8, "unit": "×"}]}
{"molecule": "B3", "values": [{"measurement": "binding to FZD8 variant", "setting": "[3]", "result": "clearly diminished"}, {"measurement": "binding to FZD8 variant", "setting": "[4]", "result": "similarly lost"}, {"measurement": "binding to FZD8 variant", "setting": "[5]", "result": "similarly lost"}]}
